We go through three molecules from patent US20240239878A1 (SHANGHAI QILU PHARMACEUTICAL RESEARCH AND DEVELOPMENT CENTRE, published 2024).

For assay [1], the target named is T1, human DLL3 antigen protein (Kactus Biosystems, Cat. No. DLL-HM103) (human, UniProt Q9NYJ7 27-492).
T1 sequence: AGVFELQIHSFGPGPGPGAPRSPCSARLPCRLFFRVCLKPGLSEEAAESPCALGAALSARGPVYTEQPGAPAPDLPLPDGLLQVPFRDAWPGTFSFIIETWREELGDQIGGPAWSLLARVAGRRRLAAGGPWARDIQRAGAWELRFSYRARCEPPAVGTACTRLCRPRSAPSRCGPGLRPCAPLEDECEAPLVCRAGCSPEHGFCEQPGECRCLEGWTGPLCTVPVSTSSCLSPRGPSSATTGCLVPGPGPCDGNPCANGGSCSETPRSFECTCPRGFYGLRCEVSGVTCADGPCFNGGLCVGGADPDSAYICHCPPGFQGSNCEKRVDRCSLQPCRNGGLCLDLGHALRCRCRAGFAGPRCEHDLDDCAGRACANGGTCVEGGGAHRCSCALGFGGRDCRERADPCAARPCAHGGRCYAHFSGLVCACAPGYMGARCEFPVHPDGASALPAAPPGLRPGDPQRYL
Kind of assay: affinity assay with human DLL3 antigen protein (kinetics; method not restated, Biacore as in Example 10 implied). (Surface plasmon resonance follows binding to a sensor surface in real time, without labels.)

The target in assay [2] is T2, human DLL3 on SHP-77 cells (human, UniProt Q9NYJ7 27-618).
T2 construct: also called DLL3-expressing cells (SHP-77)
T2 sequence: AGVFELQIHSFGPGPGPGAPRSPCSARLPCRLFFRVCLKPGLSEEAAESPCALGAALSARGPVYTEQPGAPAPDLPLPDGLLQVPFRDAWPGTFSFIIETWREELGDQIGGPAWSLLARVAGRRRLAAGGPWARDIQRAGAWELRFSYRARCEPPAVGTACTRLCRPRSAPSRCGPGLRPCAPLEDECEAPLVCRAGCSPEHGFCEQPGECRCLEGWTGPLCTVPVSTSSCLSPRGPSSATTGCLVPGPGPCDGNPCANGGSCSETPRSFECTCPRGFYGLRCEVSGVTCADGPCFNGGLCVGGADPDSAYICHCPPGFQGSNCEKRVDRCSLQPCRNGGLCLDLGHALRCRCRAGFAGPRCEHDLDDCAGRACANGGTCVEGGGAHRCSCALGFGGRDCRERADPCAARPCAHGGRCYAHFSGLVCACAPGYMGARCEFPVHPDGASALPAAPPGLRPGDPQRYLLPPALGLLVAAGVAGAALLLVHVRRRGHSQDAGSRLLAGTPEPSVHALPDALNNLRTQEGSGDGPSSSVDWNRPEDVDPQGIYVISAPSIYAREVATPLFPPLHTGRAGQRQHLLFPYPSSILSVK
Kind of assay: flow cytometry, SHP-77 cells. On the technique in general: Flow cytometry measures light scatter and fluorescence of single cells or particles in a stream.

Assay [3] has as its target T3, human DLL1 (Sino Biological, Cat. No. 11635-H08H) (human, UniProt O00548 18-545).
T3 construct: also called family protein DLL1
T3 sequence: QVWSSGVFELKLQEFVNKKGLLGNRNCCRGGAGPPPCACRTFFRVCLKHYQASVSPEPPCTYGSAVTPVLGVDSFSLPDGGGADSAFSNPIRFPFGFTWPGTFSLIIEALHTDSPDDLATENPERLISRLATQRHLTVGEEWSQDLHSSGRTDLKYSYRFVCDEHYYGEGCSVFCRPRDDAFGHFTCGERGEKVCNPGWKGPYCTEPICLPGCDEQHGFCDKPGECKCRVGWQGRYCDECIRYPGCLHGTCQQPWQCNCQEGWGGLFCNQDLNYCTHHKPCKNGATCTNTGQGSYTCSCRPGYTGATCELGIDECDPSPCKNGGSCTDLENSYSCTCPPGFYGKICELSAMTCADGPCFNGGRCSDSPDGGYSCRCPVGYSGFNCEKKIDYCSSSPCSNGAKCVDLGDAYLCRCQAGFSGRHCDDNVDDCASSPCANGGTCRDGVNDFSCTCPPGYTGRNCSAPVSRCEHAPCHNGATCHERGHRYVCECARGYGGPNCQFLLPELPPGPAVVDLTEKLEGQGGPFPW
The experiment in a line: ELISA, plate coated with human DLL1 at 1 ug/mL, OD 450nm. How it is done: (§1) The antigenic proteins human DLL1 (SinoBiological, cat. No. 11635-H08H) or human DLL4 (SinoBiological, cat. No. 10171-H08H) were dissolved in 1×PBS at a concentration of 1 μg/mL. […] The antigen was washed three times with PBST, 300 μL/well. The antigen was blocked with 1% BSA (in PBST), 200 µL/well, and incubated at 37° C. for 1.5 hours.
(§2) Antibodies to be tested were diluted with 1% BSA (in PBS) at a starting concentration of 100 nM, downwards by a 10-fold gradient for 7 concentrations. The plates were washed three times with PBST, 300 μL/well. The diluted antibody was added to an ELISA plate at 100 μL/well and incubated at room temperature for 2 hours. The antibodies were washed three times with PBST, 300 μL/well. The secondary antibodies (goat anti-human IgG Fc for DLL4 (HRP), 1:20000 dilution; HRP goat anti-mouse IgG (H+L) for DLL1, 1:10000 dilution) were diluted with 1% BSA in PBST. The diluted secondary antibodies were added to the ELISA plate at 100 μL/well and incubated at room temperature for 1 hour. The plates were washed 6 times with PBST, 300 μL/well. The developing solution (TMA and TMB 1:1 mixed) was prepared. The developing solution was added to the plate, 100 μL/well, and incubated in the dark for 5 min. 50 μL of ELISA stop solution was added to the plate and shaken well.

Assay [4] has as its target T2, human DLL3 on SHP-77 cells. The experiment in a line: flow cytometry, SHP-77 cells. The method, boiled down: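 Trypsinised SHP-77 cells in 1% BSA/PBS were incubated with antibody (100 nM top, 10-fold steps, 7 concentrations) for 1 h at 4° C. Bound antibody was detected with goat anti-human IgG Fc-PE for 0.5 h at 4° C and read as PE mean fluorescence intensity. EC50 and Top MFI were derived from the curves.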
The source holds these as a separate data set.

The target of assay [5] is T4, human DLL4 (Sino Biological, Cat. No. 10171-H08H) (human, UniProt Q9NR61 27-529).
T4 construct: also called family protein DLL4
The experiment in a line: ELISA, plate coated with human DLL4 at 1 ug/mL, OD 450nm. How it is done:
as §1, §2
(In an ELISA, binding on a coated surface is turned into a signal by an enzyme label.)

Assay [6] deals with T1, human DLL3 antigen protein (Kactus …). The experiment in a line: SPR (Biacore 8K), antibody captured on anti-human Fc, DLL3 in solution. How it is done:
The affinity and kinetic properties of the humanized anti-DLL3 antibody to human DLL3 were analyzed using a Biacore 8K instrument. CM5 chips were activated with EDC and NHS, followed by immobilization of anti-human Fc murine mAb and blocked with ethanolamine.
Human DLL3 was diluted two-fold serially to serial concentrations (100 nM-0.39 nM) and associated for 90 s and dissociated for 600 s at a flow rate of 50 μL/min.
After completion of each round of the experiment, the captured antibody was removed together with the antigen by washing with a 3M MgCl₂ solution at a flow rate of 30 μL/min for 30 s to complete the regeneration of the chip. The raw data were analyzed using Biacore Insight Evaluation Software (3.0.12.15655) software and fitted with a (1:1) Langmuir model with.

Substitutions are numbered along the chain they refer to. Like-named read-outs stand apart in the source and are kept apart here.

T4 sequence (Q9NR61 27-529 limits assumed): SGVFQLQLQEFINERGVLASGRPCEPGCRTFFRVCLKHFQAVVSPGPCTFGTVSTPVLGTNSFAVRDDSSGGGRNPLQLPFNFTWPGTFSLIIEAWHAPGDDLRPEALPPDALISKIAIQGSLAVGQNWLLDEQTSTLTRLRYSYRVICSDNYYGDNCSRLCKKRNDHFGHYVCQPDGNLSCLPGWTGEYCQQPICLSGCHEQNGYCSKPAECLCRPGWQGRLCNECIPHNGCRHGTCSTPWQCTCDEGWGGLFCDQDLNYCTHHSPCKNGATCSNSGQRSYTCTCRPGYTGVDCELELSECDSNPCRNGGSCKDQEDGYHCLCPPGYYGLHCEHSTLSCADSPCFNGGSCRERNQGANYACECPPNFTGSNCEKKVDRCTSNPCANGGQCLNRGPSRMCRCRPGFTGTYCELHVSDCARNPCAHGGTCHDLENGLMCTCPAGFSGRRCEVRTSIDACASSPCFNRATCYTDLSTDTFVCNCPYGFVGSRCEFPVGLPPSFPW

B1: hDLL3-3-1-NA humanized antibody variant (antibody, V domains shown)
VH: EVQLVESGGGLVQPGGSLRLSCAASTYTISSGYMGWFRQAPGKEREGVAAIYIGGSTTLYADSVKGRFTISRDNSKNTLYLQMNSLRAEDTAVYYCAAQLRPNAAYHPLDGRKYNYWGQGTLVTVSS
As a reminder, the Kd is a measure of binding affinity in units of concentration. By koff is commonly meant the rate constant with which the complex falls apart. A high value points to fast dissociation. For orientation: kon means a measure of how fast the partners come together. Broadly, the EC50 is the concentration that produces a half-maximal response. A lower EC50 goes with an effect from little substance. In assay [1], B1 had a Kd of 0.105 nM, a koff of 0.000135 s⁻¹ and an association rate constant (kon) of 1.29e+06 M⁻¹ s⁻¹. In assay [2], the EC50 was determined as 0.104 nM and the “Top MFI” value is 1270 MFI.

B2: hDLL3-3-1-QS humanized antibody variant (antibody, V domains shown)
VH: B1 VH with N103Q, A104S
On to B2, for which, in assay [1], the Kd came to 5.02 nM, the off-rate (koff) was 0.00611 s⁻¹ and the on-rate constant (kon) came out at 1.22e+06 M⁻¹ s⁻¹. For the same molecule, in assay [2], a half-maximal response (EC50) required 0.055 nM and the “Top MFI” value was found to be 1010 MFI.

B3: H2-45E4D7 mouse hybridoma-derived humanized anti-DLL3 antibody (antibody, V domains shown)
VH: QVQLVQSGAEVKKPGASVKVSCKASGYTFTSHWITWVRQAPGQGLEWMGDIYPISGSTNNNEKFRNRVTMTRDTSTSTVYMELSSLRSEDTAVYYCAKIITVGGAYVMDYWGQGTLVTVSS
VL: EIVMTQSPATLSVSPGERATLSCRASQSVRNNLHWYQQKPGQAPRLLIKYVSQSISGIPARFSGSGSGTEFTLTISSLQSEDFAVYYCQQSNSWPLTFGGGTKLEIK
As for B3, the binding result in assay [3] is “no binding (tested: 100 nM)”. Moreover, in assay [4], it took 2.23 nM to reach a half-maximal effect (EC50) and the “Top MFI” value was 1610 MFI. Besides, the binding result in assay [5] is listed as “no binding (tested: 100 nM)”. In assay [6], this molecule gave a Kd of 0.246 nM, a koff of 5.78e-05 s⁻¹ and an association rate constant (kon) of 235000 M⁻¹ s⁻¹.
